B1: CFHR2 (parent)
chain: FVENGHSESSGQTHLEGDTVQIIC
B2: TRAF3IP2 (parent)
chain: KQGSMNFRFIPVLFPNAKKEHVPT

Variants of: B1
Experiment: protein stability index of a GFP-peptide fusion (GPS, HEK-293T) (PSI 1-6); higher = more stable
Conditions: c terminus: a fixed tail appended
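Note: lentivirally expressed fusions sorted by FACS into six bins by GFP to DsRed ratio, PSI derived from sequencing read proportions per bin multiplied by bin number.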

Protein stability index, by site and new letter:
V2: K 4.01; F 3.62; G 3.62; C 4; Y 3.44; D 4.19; W 3.35; L 3.59; S 4.18; N 4.16; A 4; H 3.82; M 3.12; Q 3.81; P 3.88; T 3.94; R 3.96; I 3.72; E 4.54
F1: K 4.2; I 4; W 3.86; T 3.96; S 4.14; N 4.1; G 4.33; L 3.89; Q 4.37; H 4.43; A 4.27; P 4.61; E 4.95; M 4.23; Y 2.69; R 3.83; C 3.73; D 4.7; V 3.92
N4: R 2.05; G 2.59; Q 2.81; T 2.51; M 1.8; A 2.42; P 2.53; V 2.18; I 2.13; E 3.47; C 1.98; L 1.76; W 2.8; S 2.4; K 3.03; Y 2.37; D 3.92; H 2.62; F 1.83
S7: A 2.72; C 2.34
E3: Y 1.98; T 2.23; V 1.54; W 1.56; K 1.78; Q 1.83; L 1.81; D 1.74; R 1.67; C 1.38; H 2.08; A 2.11; S 2.12; F 2.04; I 1.94; N 1.92; G 2.83; P 2.38; M 1.5
G5: H 2.49; E 4.09; W 3.48; V 2.87; F 2.55; D 3.64; L 2.77; Y 3.09; K 2.64; A 2.77; I 2.2; N 3.23; Q 2.57; R 1.82; P 2.27; M 2.28; S 3.01; T 2.97; C 2.03
H6: F 2.29; S 2.92; W 2.7; G 3.12; Q 2.37; A 3.02; D 3.87; P 3.18; T 2.79; N 3.52; Y 1.93; E 3.65; C 2.28; M 2.32; V 2.74; I 2.57; L 2.19; R 2.85; K 3.33

Variants of: B2
Experiment: as above
Conditions: c terminus: a fixed tail appended

Protein stability index: each site, then its substitutions
F14: S 2.42; H 2.12; I 1.36; R 1.8; G 2.29; K 2.62; L 1.68; E 3.19
P23: Y 1.84; M 1.78; H 1.83; C 1.96; S 1.88; K 2; V 1.4; N 1.86
N6: D 1.89; W 1.83; T 1.96; G 1.56; P 2.44; Q 1.81; L 1.81; Y 2.14; M 1.58; F 1.74
N16: V 1.55; Q 1.75; D 1.58; S 2.33; H 1.66; M 1.88; F 1.63; Y 1.8; K 1.72
Q2: I 2.82; Y 2.08; T 1.84; L 2.23; S 1.82; M 1.48; C 1.8; A 2.47; G 2.66; W 2.27
V22: P 1.82; S 3; Q 1.96; T 2.38; R 1.99; M 2.24; H 1.73; Y 1.91; L 2.09; D 2.89; F 2.16; K 2.61
R8: W 2.44; I 2.88; Y 2.09; A 1.78; N 2.8; M 1.88; C 2.52; L 2.22; G 1.9; F 1.61
S4: E 2.57; V 1.87; Q 2.59; A 2.68; G 1.53; Y 2.14; T 2; W 1.41; R 1.48; M 1.81
A17: E 2.47; M 2.08; K 1.82; P 2.07; C 1.97; W 1.74; S 2.21; R 2; T 2.86; L 1.89
T24: R 2.33; Y 2.5; S 1.65; L 1.67; E 2.35; C 1.94; H 1.89
I10: E 3.16; A 1.98; F 2.11; N 2.9; M 2.23
K18: Y 1.84; F 1.77; G 2.04; N 1.93; R 1.6; L 1.61; W 1.65; V 1.65; A 1.76; D 2.34
V12: F 2.14; A 2.31; M 1.86; G 1.96; R 2.49; T 1.86; N 2.84; Q 2.4; W 2.06; Y 1.97; E 2.76; P 2.33
F9: I 2.06; K 3.41; A 3.43; G 3.17; R 2.84; Y 2.5; Q 3.3; W 2.31; C 2.15; E 3.94
K1: V 1.95; W 2.08; N 1.94; P 1.88; Y 2.57; R 2.31; A 2.02; E 2.7; F 2.23; S 2.16; L 1.51
G3: S 1.82; K 1.6; W 2.25; N 2.05; I 1.77; L 1.67; M 1.75; R 1.83; D 2.02; Y 1.33; E 2.09
P15: G 1.49; I 2.17; A 1.66; E 2.14; Q 1.41; F 2.2; W 2.67; K 1.52; H 1.87
M5: Y 1.87; R 2.2; E 2.88; G 2.43; S 2.04; I 2.01; L 1.97; C 1.98; T 2.5
P11: I 3.73; F 3.53; T 1.86; E 1.45; A 2.39; Q 1.85; R 2.14
F7: T 2.73; D 2.91; L 1.91; P 3.31; K 3.06; R 2.69; S 3.12
E20: P 2.12; M 2.3; V 2.26; I 2.19; G 2.24; D 2.33; S 1.73
L13: I 1.75; M 1.77; E 2.88; N 2.28; G 1.93; V 2.01; H 2.38; K 2.06; Y 1.82; R 1.93; P 1.87
K19: V 1.65; H 2.34; N 1.7; W 1.65; R 1.59; T 1.75; G 1.95
H21: Q 1.78; G 2.3; V 1.94; K 1.77; R 1.72; T 2.15; C 2.02; N 2.21

— the supplement of paper PMC10567573
